Assay results as given in paper PMC5641629.

Target: penicillin binding protein 2a (PBP2a) lacking the N-terminal 40 amino acid membrane-spanning domain (Staphylococcus aureus (MRSA))
Experiment: SPR

BLIP-II W152A (from UniProt O87916 1-311) (natural protein)
koff: 0.0012 s⁻¹
kon: 185 M⁻¹ s⁻¹

BLIP-II I229A (from UniProt O87916 1-311) (natural protein)
Kd: 3.4 µM
koff: 0.00115 s⁻¹
kon: 339 M⁻¹ s⁻¹

BLIP-II N112A (from UniProt O87916 1-311) (natural protein)
Kd: 1.2 µM
koff: 0.0014 s⁻¹
kon: 1190 M⁻¹ s⁻¹

BLIP-II Y248A (from UniProt O87916 1-311) (natural protein)
koff: 0.00086 s⁻¹
kon: 114 M⁻¹ s⁻¹

BLIP-II Y73A (from UniProt O87916 1-311) (natural protein)
Kd: 1.2 µM
koff: 0.00119 s⁻¹
kon: 961 M⁻¹ s⁻¹

BLIP-II F209A (from UniProt O87916 1-311) (natural protein)
Kd: 6 µM
koff: 0.00078 s⁻¹
kon: 137 M⁻¹ s⁻¹

BLIP-II D52A (from UniProt O87916 1-311) (natural protein)
Kd: 1.8 µM
koff: 0.00061 s⁻¹
kon: 354 M⁻¹ s⁻¹

BLIP-II N50A (from UniProt O87916 1-311) (natural protein)
Kd: 0.45 µM
koff: 0.000719 s⁻¹
kon: 1540 M⁻¹ s⁻¹

BLIP-II N51A (from UniProt O87916 1-311) (natural protein)
Kd: 0.7 µM
koff: 0.00086 s⁻¹
kon: 1270 M⁻¹ s⁻¹

BLIP-II E268A (from UniProt O87916 1-311) (natural protein)
Kd: 4.7 µM
kon: 424 M⁻¹ s⁻¹

BLIP-II S169A (from UniProt O87916 1-311) (natural protein)
Kd: 1.4 µM
koff: 0.00074 s⁻¹
kon: 504 M⁻¹ s⁻¹

BLIP-II W269A (from UniProt O87916 1-311) (natural protein)
Kd: 3.1 µM
koff: 0.00116 s⁻¹
kon: 375 M⁻¹ s⁻¹

BLIP-II L91A (from UniProt O87916 1-311) (natural protein)
Kd: 4 µM
koff: 0.00066 s⁻¹
kon: 168 M⁻¹ s⁻¹

BLIP-II Y113A (from UniProt O87916 1-311) (natural protein)
Kd: 4 µM
kon: 217 M⁻¹ s⁻¹

BLIP-II T57A (from UniProt O87916 1-311) (natural protein)
Kd: 0.6 µM
koff: 0.00095 s⁻¹
kon: 1750 M⁻¹ s⁻¹
